Measured values published in publication PMC5149402 (Structure (London, England : 1993), 2016).

B2: full-length rat Cerebellin-1, wild type (hexamer) (natural protein, UniProt P63182 22-193, looked up)
chain: QNETEPIVLEGKCLVVCDSNPTSDPTGTALGISVRSGSAKVAFSAIRSTNHEPSEMSNRTMIIYFDQVLVNIGNNFDSERSTFIAPRKGIYSFNFHVVKVYNRQTIQVSLMLNGWPVISAFAGDQDVTREAASNGVLIQMEKGDRAYLKLERGNLMGGWKYSTFSGFLVFPL

What was measured:
SEC = biological target: the molecule itself; assay: SEC
[1] = biological target: rat Neurexin-1β (+SS4), residues S48 to P292 (β-unique N-terminal region plus LNS6) (rat, UniProt Q63373 48-292); assay: ITC
non-reducing SDS-PAGE = biological target: the molecule itself; assay: non-reducing SDS-PAGE
[2] = biological target: B2; assay: ITC

rat Neurexin-1β (+SS4), residues S48 to P292 (β-unique N-terminal region plus LNS6), sequence (Q63373 48-292): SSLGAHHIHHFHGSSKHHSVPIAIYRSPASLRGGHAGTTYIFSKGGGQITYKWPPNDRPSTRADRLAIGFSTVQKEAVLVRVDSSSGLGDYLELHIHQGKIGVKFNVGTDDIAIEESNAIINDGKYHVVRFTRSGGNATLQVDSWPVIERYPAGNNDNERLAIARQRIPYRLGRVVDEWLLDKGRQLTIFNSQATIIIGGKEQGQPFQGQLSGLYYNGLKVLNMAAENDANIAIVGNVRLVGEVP

B1: rat Cerebellin-1 C34,38S double mutant (trimer) (natural protein, UniProt P63182 22-193, looked up)
chain: QNETEPIVLEGKSLVVSDSNPTSDPTGTALGISVRSGSAKVAFSAIRSTNHEPSEMSNRTMIIYFDQVLVNIGNNFDSERSTFIAPRKGIYSFNFHVVKVYNRQTIQVSLMLNGWPVISAFAGDQDVTREAASNGVLIQMEKGDRAYLKLERGNLMGGWKYSTFSGFLVFPL
stoichiometry N (SEC): 3

B2
Kd [1]: 47 nM
stoichiometry N (non-reducing SDS-PAGE): 2

B3: rat Neurexin-1α (+SS4), domains LNS2 to LNS6 (domain or fragment)
chain: not shown
Kd [2]: 35 nM
stoichiometry N [2]: 0.912 ± 0.045
